Consider 94 variants from the supplement of paper PMC10567573.

To fix the notation:
B1: CCND1 (parent)
chain: IRRAYPDANLLNDRVLRAMLKAEE
B2: TSN (parent)
chain: FVELQGFLAAEQDIREEIRKVVQS
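Further: lentivirally expressed fusions sorted by FACS into six bins by GFP to DsRed ratio, PSI derived from sequencing read proportions per bin multiplied by bin number.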

In one data set the parent is B1. The data set is described as follows: protein stability index of a GFP-peptide fusion (GPS, HEK-293T) (PSI 1-6); higher = more stable. The note with it: c terminus: a fixed tail appended.
In the case of IREAYPDANLLNDRVLRAMLKAEE, the protein stability index was found to be 3.72.

Consider IRAAYPDANLLNDRVLRAMLKAEE, for which the protein stability index turned out to be 2.86.

On to IRQAYPDANLLNDRVLRAMLKAEE, for which the protein stability index was 3.62.

In the case of IRNAYPDANLLNDRVLRAMLKAEE, the protein stability index is 2.66.

For IRIAYPDANLLNDRVLRAMLKAEE, the protein stability index is 1.13.

Take IRHAYPDANLLNDRVLRAMLKAEE: the protein stability index amounted to 2.92.

As to IRMAYPDANLLNDRVLRAMLKAEE, the protein stability index was determined as 2.35.

For IRVAYPDANLLNDRVLRAMLKAEE, the protein stability index was 1.54.

IRRAYPDANLMNDRVLRAMLKAEE: the protein stability index was determined as 1.92.

For IRRAYPDANLDNDRVLRAMLKAEE, the protein stability index was 4.19.

Take IRRAYPDANLVNDRVLRAMLKAEE: the protein stability index is 2.72.

For the variant IRRAYPDANLFNDRVLRAMLKAEE, the protein stability index was determined as 1.75.

IRRAYPDANLGNDRVLRAMLKAEE: the protein stability index stood at 2.84.

For the variant IRRAYPDANLENDRVLRAMLKAEE, the protein stability index turned out to be 3.58.

As to IRRAYPDANLKNDRVLRAMLKAEE, the protein stability index was 3.33.

For IRRAYPDANLTNDRVLRAMLKAEE, the protein stability index came out at 3.04.

As for IRRAYPDANLCNDRVLRAMLKAEE, the protein stability index amounted to 2.69.

As to IRRAYPDANLQNDRVLRAMLKAEE, the protein stability index worked out at 3.79.

As to IRRAYPDANLSNDRVLRAMLKAEE, the protein stability index turned out to be 3.01.

In the case of IRRAYPDANLNNDRVLRAMLKAEE, the protein stability index was determined as 1.97.

Take IRRAYPDANLINDRVLRAMLKAEE: the protein stability index stood at 2.43.

IRRAYPDANLPNDRVLRAMLKAEE: the protein stability index was determined as 2.48.

On to IRRAYPDANLWNDRVLRAMLKAEE, for which the protein stability index stood at 2.02.

For IRRAYPDANLLNARVLRAMLKAEE, the protein stability index was found to be 2.28.

For IRRAYPDANLLNIRVLRAMLKAEE, the protein stability index came to 2.91.

On to IRRAYPDANLLNCRVLRAMLKAEE, for which the protein stability index came to 2.72.

Regarding IRRAYPDANLLNLRVLRAMLKAEE, the protein stability index came to 2.02.

With IRRAYPDANLLNHRVLRAMLKAEE, the protein stability index was found to be 2.2.

With IRRAYPDANLLNKRVLRAMLKAEE, the protein stability index is 2.45.

With IRRAYPDANLLNFRVLRAMLKAEE, the protein stability index was 2.34.

Consider IRRAYPDADLLNDRVLRAMLKAEE, for which the protein stability index was 2.3.

IRRAYPDAYLLNDRVLRAMLKAEE: the protein stability index is 2.11.

For IRRAYPDAGLLNDRVLRAMLKAEE, the protein stability index was 2.34.

For the variant IRRAYPDAELLNDRVLRAMLKAEE, the protein stability index amounted to 3.04.

On to IRRAYPDATLLNDRVLRAMLKAEE, for which the protein stability index is 2.63.

As to IRRAYPDAFLLNDRVLRAMLKAEE, the protein stability index is 1.71.

In the case of IRRAYPDAILLNDRVLRAMLKAEE, the protein stability index came to 2.36.

With IRRAYPDAALLNDRVLRAMLKAEE, the protein stability index amounted to 2.34.

For IRRAYPDAVLLNDRVLRAMLKAEE, the protein stability index was 2.26.

For IRRAYPDARLLNDRVLRAMLKAEE, the protein stability index was found to be 2.06.

With IRRAYPDASLLNDRVLRAMLKAEE, the protein stability index is 2.44.

Regarding ARRAYPDANLLNDRVLRAMLKAEE, the protein stability index was determined as 2.77.

On to CRRAYPDANLLNDRVLRAMLKAEE, for which the protein stability index was 2.41.

On to HRRAYPDANLLNDRVLRAMLKAEE, for which the protein stability index worked out at 3.25.

With QRRAYPDANLLNDRVLRAMLKAEE, the protein stability index is 3.45.

For the variant PRRAYPDANLLNDRVLRAMLKAEE, the protein stability index was 3.34.

In the case of LRRAYPDANLLNDRVLRAMLKAEE, the protein stability index amounted to 2.5.

For SRRAYPDANLLNDRVLRAMLKAEE, the protein stability index came to 3.94.

With WRRAYPDANLLNDRVLRAMLKAEE, the protein stability index turned out to be 2.32.

In the case of VRRAYPDANLLNDRVLRAMLKAEE, the protein stability index came to 2.69.

As to NRRAYPDANLLNDRVLRAMLKAEE, the protein stability index came to 3.69.

For the variant RRRAYPDANLLNDRVLRAMLKAEE, the protein stability index was 2.21.

Regarding KRRAYPDANLLNDRVLRAMLKAEE, the protein stability index was found to be 2.99.

Take TRRAYPDANLLNDRVLRAMLKAEE: the protein stability index amounted to 2.27.

Regarding IRRAYYDANLLNDRVLRAMLKAEE, the protein stability index was found to be 1.63.

For the variant IRRAYTDANLLNDRVLRAMLKAEE, the protein stability index amounted to 1.88.

As to IRRAYVDANLLNDRVLRAMLKAEE, the protein stability index was found to be 3.38.

For IRRAYRDANLLNDRVLRAMLKAEE, the protein stability index came out at 2.35.

Take IRRAYGDANLLNDRVLRAMLKAEE: the protein stability index was determined as 2.13.

Take IRRAYFDANLLNDRVLRAMLKAEE: the protein stability index was found to be 2.4.

Regarding IRRAYMDANLLNDRVLRAMLKAEE, the protein stability index was 2.99.

With IRRAYIDANLLNDRVLRAMLKAEE, the protein stability index amounted to 2.21.

Take IRRAYDDANLLNDRVLRAMLKAEE: the protein stability index came out at 1.43.

IRRAYEDANLLNDRVLRAMLKAEE: the protein stability index amounted to 2.14.

IRRAYLDANLLNDRVLRAMLKAEE: the protein stability index stood at 2.42.

Take IRRAYSDANLLNDRVLRAMLKAEE: the protein stability index is 3.19.

Consider IRRAYADANLLNDRVLRAMLKAEE, for which the protein stability index stood at 1.75.

For the variant IRRAYPDANLLRDRVLRAMLKAEE, the protein stability index was 2.73.

As for IRRAYPDANLLKDRVLRAMLKAEE, the protein stability index came out at 2.15.

On to IRRAYPDANLLADRVLRAMLKAEE, for which the protein stability index was 3.21.

IRRAYPDANLLCDRVLRAMLKAEE: the protein stability index was 2.51.

As for IRRAYPDANLLGDRVLRAMLKAEE, the protein stability index was found to be 3.05.

On to IRRAYPDANLLDDRVLRAMLKAEE, for which the protein stability index amounted to 2.87.

For IRRAYPDANLLQDRVLRAMLKAEE, the protein stability index was determined as 2.39.

Consider IRRAYPDANLLHDRVLRAMLKAEE, for which the protein stability index came out at 2.5.

IRRAYPDANLLYDRVLRAMLKAEE: the protein stability index was 2.52.

Consider IRRAYPDANLLSDRVLRAMLKAEE, for which the protein stability index came to 2.11.

In the case of IRRAYPDANLLPDRVLRAMLKAEE, the protein stability index was 1.84.

In the case of IRRAYPDANLLEDRVLRAMLKAEE, the protein stability index was 3.41.

As to IRRAYPDANLLFDRVLRAMLKAEE, the protein stability index amounted to 1.9.

Regarding IRRAYPDANLLWDRVLRAMLKAEE, the protein stability index was 2.19.

A further data set covers variants of B2. Described as above. Particulars: c terminus: a fixed tail appended.
Regarding FVELQGFLAAEQDIREEIRKVVIS, the protein stability index is 1.25.

Regarding FVELQGFLAAEQDIREEIRKVVFS, the protein stability index was found to be 2.61.

With FVELQGFLAAEQDIREEIRKVVWS, the protein stability index is 1.65.

For FVELQGFLAAEQDIREEIRKVVDS, the protein stability index was 3.47.

Regarding FVELQGFLAAEQDIREEIRKVVCS, the protein stability index was 3.33.

On to FVELQGFLAAEQDIREEIRKVVTS, for which the protein stability index worked out at 2.38.

Turning to FVELQGFLAAEQDIREEIRKVVMS, the protein stability index was 1.98.

FVELQGFLAAEQDIREEIRKVVLS: the protein stability index was determined as 1.92.

With FVELQGFLAAEQDIREEIRKVVQG, the protein stability index is 2.37.

With FVELQGFLAAEQDIREEIRKVVQK, the protein stability index is 1.42.

Consider FVELQGFLAAEQDIREEIRKVVQQ, for which the protein stability index is 1.97.

FVELQGFLAAEQDIREEIRKVVQL: the protein stability index was 3.92.

As to FVELQGFLAAEQDIREEIRKVVQE, the protein stability index came to 1.72.
